Consider three substances from patent US20040005550A1, “Methods and compositions useful for targeting activated vitronectin receptor alphavbeta3” (The Scripps Research Institute, priority 1998, published 2004).

A value given as a limit tells only on which side of the number the result lay.

Assay [1] addresses human αvβ3 integrin on cells (human) (UniProt P06756). In words: flow cytometry, AP5-treated αvβ3-CHO cells; 1 µM Integrilin against aPB. A general note: A flow cytometer gives signals particle by particle.
Assay [2] shares this target. In words: flow cytometry, AP5-treated αvβ3-CHO cells; 1 µM Integrilin against WOW-1 Fab.
The target is the same in assay [3]. In words: flow cytometry binding isotherms, JY cells.
Assay [4] shares this target. Kind of assay: flow cytometry binding isotherm, αvβ3-CHO cells, no treatment.
The target of assay [5] is purified αvβ3 receptors from human placenta (human) (UniProt P06756). Kind of assay: ELISA on purified integrin, 50 µM MnCl2; half-maximal binding. For orientation: ELISA stands for enzyme-linked immunosorbent assay.
The target of assay [6] is human αvβ3 integrin on cells (human) (UniProt P06756). In words: flow cytometry binding isotherm, unstimulated JY cells, one-site fit.
Assay [7] shares this target. Kind of assay: flow cytometry, JY cells, 100 nM phorbol myristate acetate for 15 min.
Assay [8] shares this target. In words: flow cytometry binding isotherm, αvβ3-CHO cells, activating antibody AP5.
For assay [9] the target is unchanged. In words: flow cytometry binding isotherm, JY cells stimulated with phorbol myristate acetate, one-site fit.
Assay [10] shares this target. Kind of assay: unstimulated B-lymphoblastoid cells; summary in the description, differs from the 2,600 nM of Example 8.
In assay [11] the target is purified αIIbβ3 from human platelets (human) (UniProt P08514). In words: ELISA on purified integrin, 50 µM MnCl2; half-maximal binding.

Chain of human αvβ3 integrin on cells (human) (P06756 31-1048, chain 1 of 2): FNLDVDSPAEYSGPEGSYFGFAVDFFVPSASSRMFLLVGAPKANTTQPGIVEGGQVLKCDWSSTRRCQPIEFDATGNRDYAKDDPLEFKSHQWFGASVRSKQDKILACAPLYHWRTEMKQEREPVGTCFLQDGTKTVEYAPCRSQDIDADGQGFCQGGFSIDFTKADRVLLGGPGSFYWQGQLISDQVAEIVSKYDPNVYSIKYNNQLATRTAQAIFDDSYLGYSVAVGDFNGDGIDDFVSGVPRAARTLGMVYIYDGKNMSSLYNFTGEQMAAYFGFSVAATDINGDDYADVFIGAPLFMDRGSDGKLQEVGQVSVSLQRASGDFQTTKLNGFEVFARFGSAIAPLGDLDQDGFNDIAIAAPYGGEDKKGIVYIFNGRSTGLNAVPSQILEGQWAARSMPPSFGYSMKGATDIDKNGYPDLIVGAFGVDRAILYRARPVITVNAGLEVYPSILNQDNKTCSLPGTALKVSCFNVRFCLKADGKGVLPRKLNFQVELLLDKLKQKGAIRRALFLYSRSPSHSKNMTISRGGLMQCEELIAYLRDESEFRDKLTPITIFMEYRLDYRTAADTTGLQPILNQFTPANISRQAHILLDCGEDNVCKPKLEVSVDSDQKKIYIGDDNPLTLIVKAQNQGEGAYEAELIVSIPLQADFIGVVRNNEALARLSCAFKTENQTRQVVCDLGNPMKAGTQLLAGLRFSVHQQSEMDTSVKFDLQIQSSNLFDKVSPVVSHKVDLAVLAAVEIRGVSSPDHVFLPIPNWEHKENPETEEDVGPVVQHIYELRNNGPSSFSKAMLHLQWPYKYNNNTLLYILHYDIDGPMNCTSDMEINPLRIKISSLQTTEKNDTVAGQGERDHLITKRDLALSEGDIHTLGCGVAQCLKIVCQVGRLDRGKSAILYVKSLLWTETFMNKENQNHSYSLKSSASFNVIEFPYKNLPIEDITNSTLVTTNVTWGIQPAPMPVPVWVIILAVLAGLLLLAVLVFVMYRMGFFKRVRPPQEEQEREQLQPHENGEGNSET
Chain of human αvβ3 integrin on cells (human) (P05106 27-788, chain 2 of 2, further chain): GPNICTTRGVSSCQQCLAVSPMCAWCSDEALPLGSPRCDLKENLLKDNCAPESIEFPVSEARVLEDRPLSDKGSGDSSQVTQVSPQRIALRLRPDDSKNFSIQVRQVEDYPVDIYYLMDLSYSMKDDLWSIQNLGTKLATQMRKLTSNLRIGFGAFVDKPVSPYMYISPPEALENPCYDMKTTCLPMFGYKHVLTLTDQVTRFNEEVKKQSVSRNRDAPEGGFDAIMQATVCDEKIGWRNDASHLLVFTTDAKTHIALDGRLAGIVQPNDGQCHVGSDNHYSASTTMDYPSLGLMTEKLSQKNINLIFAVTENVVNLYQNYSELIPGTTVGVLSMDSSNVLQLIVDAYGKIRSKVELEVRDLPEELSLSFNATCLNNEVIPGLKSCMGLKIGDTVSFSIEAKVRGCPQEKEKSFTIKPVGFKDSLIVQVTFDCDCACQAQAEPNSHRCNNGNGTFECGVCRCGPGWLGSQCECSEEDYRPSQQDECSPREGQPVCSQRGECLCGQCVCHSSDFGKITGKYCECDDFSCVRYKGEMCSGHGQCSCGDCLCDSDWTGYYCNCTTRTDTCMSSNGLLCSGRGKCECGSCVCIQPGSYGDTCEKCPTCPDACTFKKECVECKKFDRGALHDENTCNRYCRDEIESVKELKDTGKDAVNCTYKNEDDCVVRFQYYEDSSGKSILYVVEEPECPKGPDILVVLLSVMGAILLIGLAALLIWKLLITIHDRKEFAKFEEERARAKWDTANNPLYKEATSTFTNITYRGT
Chain of purified αvβ3 receptors from human placenta (human) (P06756 31-1048 limits assumed, chain 1 of 2): as the sequence (P06756 31-1048, chain 1 of 2) above
Chain of purified αvβ3 receptors from human placenta (human) (P05106 27-788 limits assumed, chain 2 of 2, further chain): as the sequence (P05106 27-788, chain 2 of 2, further chain) above

Turning to Integrilin (peptide), the percent inhibition of aPB binding in assay [1] is less than 20%. In assay [2], this substance yielded a percent inhibition of WOW-1 Fab binding of less than 20%.
For orientation: Kd means the equilibrium constant for the complex coming apart. By EC50 is commonly meant the concentration needed to bring the measured effect to its halfway point. Read a low EC50 as greater potency. As to WOW-1 Fab, in assay [3], the fold increase in binding affinity with phorbol myristate acetate against unstimulated cells was greater than 30 fold. Moreover, the Bmax in assay [4] was found to be 62 units; in assay [8] it was 65 units. The Kd in [4] turned out to be 514 nM; in assay [6], 2600 nM; in [8] it was 119 nM; in assay [9] it was 80 nM; in assay [10], 2400 nM. Besides, the EC50 in [5] was 40 nM. The maximal binding (arbitrary fluorescence units) in assay [6] was 24.8. The substance also showed a fold increase in specific binding with phorbol myristate acetate against no agonist in assay [7] of 2.4 fold. This substance also displayed a maximal binding in assay [9] of 23.5 units.
Regarding PAC1 Fab, the EC50 in assay [11] was determined as 50 nM.
